Test results from patent US20150158934A1.
pKd: −log10 of the molar value.

What was measured:
Assay in all cases: SPR
[1] = biological target: CA018 gp140/420 (A/G) (HIV-1)
[2] = biological target: gp140UG37 (subtype A), gp140 envelope glycoprotein from the HIV-1 group M A-clade isolate 92UG037 (HIV-1)
[3] = biological target: gp140CN54 (subtype B'/C), gp140 envelope glycoprotein from the HIV-1 group M CRF07-B/C-clade isolate 97CN54 (HIV-1)
[4] = biological target: gp120IIIB (subgroup B) (HIV-1) (UniProt P04578)

| Substance | pKd [1] | koff [1] [s⁻¹] | kon [1] [M⁻¹ s⁻¹] | pKd [2] | koff [2] [s⁻¹] | kon [2] [M⁻¹ s⁻¹] | pKd [3] | koff [3] [s⁻¹] | kon [3] [M⁻¹ s⁻¹] | pKd [4] | koff [4] [s⁻¹] | kon [4] [M⁻¹ s⁻¹] |
| --- | --- | --- | --- | --- | --- | --- | --- | --- | --- | --- | --- | --- |
| mAb 2G12 (antibody) | 6.27 | 0.342 | 500000 | 6.41 | 0.349 | 695000 |  |  |  |  |  |  |
| mAb 17b (antibody) | 8.97 | 0.000637 | 593000 | 8.58 | 0.000135 | 51000 | 8.21 | 0.000171 | 27700 |  |  |  |
| mAb 2F5 (antibody) |  |  |  | 7.23 | 0.422 | 80900 |  |  |  |  |  |  |
| sCD4 (2-D) (from UniProt P01730 26-208) (receptor) |  |  |  | 7.40 | 0.000249 | 6250 |  |  |  | 9.03 | 6e-05 | 63700 |
| mAb HJ16 (antibody) | 5.99 | 0.0382 | 37200 | 7.05 | 0.341 | 424000 |  |  |  | 8.52 | 0.000156 | 51500 |
| mAb b12 (antibody) | 7.73 | 0.0271 | 1.43e+06 | 6.63 | 0.301 | 1.29e+06 | 6.78 | 0.00228 | 13600 |  |  |  |
